# Laboratory results published in article PMC5529482.
# pEC50, pKd: −log10 of the molar value.
# Assays:
# [1] = molecular target: mouse TNFR2-Fc fusion protein (mouse) (UniProt P25119); experiment: quartz crystal microbalance; mouse TNFR2-Fc chemically immobilised on a carboxyl sensor chip at high density (270 Hz, saturated); muteins 2-32 nM; PBST (PBS, 0.1% Tween 20) pH 7.4, 37 °C; Attana Cell 200
# [2] = molecular target: mouse TNFR2-Fc fusion protein (mouse) (UniProt P25119); experiment: ELISA; TNFR1-Fc or TNFR2-Fc coated at 1 µg/ml in PBS, 4 °C overnight; TNF muteins in 2% skim milk powder in PBS, 1 h RT; detected with anti-TNF clone F6C5 and HRP anti-mouse IgG
# [3] = molecular target: mouse TNFR2-Fc fusion protein (mouse) (UniProt P25119); experiment: quartz crystal microbalance; mouse TNFR2-Fc chemically immobilised on a carboxyl sensor chip at low density (130 Hz, non-saturated); muteins 8-256 nM; PBST (PBS, 0.1% Tween 20) pH 7.4, 37 °C; Attana Cell 200; biphasic curves for p53- and GCN4-sc-mTNFR2
# [4] = molecular target: EHD2-sc-mTNFR2 (not stated | mouse) (UniProt P06804); experiment: SEC; approx. 20 µg protein on BioSep-SEC-S2000 in PBS, 0.5 ml/min; size by standard proteins
# [5] = molecular target: p53-sc-mTNFR2 (not stated | mouse) (UniProt P04637); experiment: as above
pKd [1],koff [1] [s⁻¹],kon [1] [M⁻¹ s⁻¹],pEC50 [2],pKd [3],koff [3] [s⁻¹],kon [3] [M⁻¹ s⁻¹],stoichiometry N [4],Kd1 [3] [nM],Kd2 [3] [nM],stoichiometry N [5],Substance
9.35,0.000399,808000,8.81,–,–,–,–,–,–,–,sc-mTNFR2 (mouse TNFR2-specific (D221N/A223R) single-chain mouse TNF) (from UniProt P06804 91-235; P06804 91-235; P06804 91-235) (ligand)
10.21,3.74e-05,607000,9.96,6.93,0.063,533000,2,–,–,–,EHD2-sc-mTNFR2 (from UniProt P06804 91-235; P06804 91-235; P06804 91-235) (ligand)
10.36,–,–,10.13,–,–,–,–,50.9,3.97,4,p53-sc-mTNFR2 (from UniProt P04637 320-359; P06804 91-235; P06804 91-235; P06804 91-235) (ligand)
